Assay results taken from US20200123270A1 (Astellas, published 2020).
Values belong to the molecule of their own block, whether it stands above or below them.

Assays:
[1] = target: human CEACAM5 (R&D Systems, Inc.), biotinylated (human) (UniProt P06731); test: SPR (Biacore T200), biotinylated human CEACAM5 captured on chip, Fab conjugate as analyte
[2] = target: human CEACAM5 (R&D Systems, Inc.), biotinylated (human) (UniProt P06731); test: SPR (Biacore T200), biotinylated human CEACAM5 captured on chip, Fab as analyte
[3] = target: T1, human CEACAM5 (R&D Systems, Inc.), biotinylated (human, UniProt P06731 35-685, biotinylated with Biotin Labeling Kit-NH2; sites not stated); test: as above
T1 construct: Bought protein, biotinylated and captured on the sensor chip with the Biotin CAPture Kit
T1 sequence (looked up): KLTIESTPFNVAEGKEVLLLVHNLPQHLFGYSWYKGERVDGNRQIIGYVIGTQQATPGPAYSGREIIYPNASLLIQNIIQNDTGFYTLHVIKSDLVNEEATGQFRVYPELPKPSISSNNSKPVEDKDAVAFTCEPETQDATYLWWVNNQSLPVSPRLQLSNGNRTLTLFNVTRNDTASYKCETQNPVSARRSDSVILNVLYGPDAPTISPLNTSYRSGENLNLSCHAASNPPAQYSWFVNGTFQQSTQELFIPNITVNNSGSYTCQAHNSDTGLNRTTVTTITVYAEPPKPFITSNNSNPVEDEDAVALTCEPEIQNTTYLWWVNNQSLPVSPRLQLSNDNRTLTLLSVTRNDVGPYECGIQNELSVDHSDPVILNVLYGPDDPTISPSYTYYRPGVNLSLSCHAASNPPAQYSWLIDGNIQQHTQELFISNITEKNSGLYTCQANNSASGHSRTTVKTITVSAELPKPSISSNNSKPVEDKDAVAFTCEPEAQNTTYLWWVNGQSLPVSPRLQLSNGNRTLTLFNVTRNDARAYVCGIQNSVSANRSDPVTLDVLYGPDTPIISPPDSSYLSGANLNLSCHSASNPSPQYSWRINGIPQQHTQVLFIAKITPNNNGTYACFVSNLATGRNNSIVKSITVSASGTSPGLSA
Procedure: (§1) The analysis by SPR was conducted using Biacore T200 (GE Healthcare Japan Corp.). 10 μg/mL human CEACAM5 (R&D Systems, Inc.) biotinylated with Biotin CAPture Kit, Series S (GE Healthcare Japan Corp.) and Biotin Labeling Kit-NH₂ (Dojindo Laboratories) was added to the surface of the sensor chip at a flow rate of 5 μL/min for 2 minutes, and immobilized thereonto. PB009-01, PB009-02, M5A-Fab and M5A-Fab-DFO were diluted with HBS-EP+ solution (GE Healthcare Japan Corp.) into 6 series at a 2-fold ratio from 400 nM, and 100 μL each was added to the channel at a flow rate of 50 μL/min. In this measurement system, the dissociation constant (KD) of PB009-01, PB009-02, M5A-Fab or M5A-Fab-DFO for human CEACAM5 was calculated using data analysis software (BIA Evaluation, GE Healthcare Japan Corp.). As a result, as shown in the table given below, the binding activity of M5A-Fab was attenuated by the binding of DFO, whereas the binding activity of PB009-01 was not attenuated by the binding of DFO.

[4] = target: T1, human CEACAM5 (R&D Systems, Inc.), …; test: SPR (Biacore T200), biotinylated human CEACAM5 captured on chip, Fab conjugate as analyte
Procedure: In order to measure the detailed binding activity of PB009-02, analysis was conducted by SPR. In this Example, a Fab fragment of M5A (referred to as M5A-Fab), a humanized antibody of T84.66, was used as a comparative Fab fragment. M5A-Fab bound to DFO via a linker (referred to as M5A-Fab-DFO) was prepared by use of the method described in Example 2.
as §1

Kd [1]: 9.6 nM
Molecule: M5A-Fab bound to DFO via a linker

Kd [2]: 0.16 nM
Molecule: Fab fragment of M5A, a humanized antibody of T84.66

Kd [3]: 0.17 nM
B1: anti-human CEACAM5 antibody Fab fragment PB009-01 (Fab, V domains shown)
VH: EVQLVESGGGLVQPGGSLRLSCAASGFNIRDTYMHWVRQAPGKGLEWVARIDPANGNSRYVPKFQGRFTISADTSRNTAYLQMNSLRAEDTAVYYCAPFGYYVSDYAMAYWGQGTLVTVSS
VL: DIQLTQSPSSLSASVGDRVTITCRAGESVDIFGVGFLHWYQQKPGKAPKLLIYRASNLESGIPSRFSGSGSRTDFTLTISSLQPEDFATYYCQQTNEDPYTFGQGTKVEIKR
notes: Humanized and redesigned from mouse anti-human CEACAM5 antibody T84.66

Kd [4]: 0.61 nM
B2: PB009-02 (Fab fragment PB009-01 bound to DFO via a linker) (Fab, V domains shown)
VH: EVQLVESGGGLVQPGGSLRLSCAASGFNIRDTYMHWVRQAPGKGLEWVARIDPANGNSRYVPKFQGRFTISADTSRNTAYLQMNSLRAEDTAVYYCAPFGYYVSDYAMAYWGQGTLVTVSS
VL: DIQLTQSPSSLSASVGDRVTITCRAGESVDIFGVGFLHWYQQKPGKAPKLLIYRASNLESGIPSRFSGSGSRTDFTLTISSLQPEDFATYYCQQTNEDPYTFGQGTKVEIKR
modifications: DFO bound via linker -C(=S)-NH-(1,4-phenylene)-NH-C(=S)- (from p-SCN-Bn-DFO); at least 3 to 10 DFO ligands per Fab by mass spectrometry; modified residues and their split between the chains not …
notes: Chemical conjugate of PB009-01 with the chelator DFO
